From the Human Domainome abundance scans (Beltran et al. 2025)
± gives the uncertainty stated by the source.

B1: PDZ and LIM domain protein 2, residues 284 to 339; numbered along this chain, Q96JY6 (parent)
chain: HTCEKCSTSIANQAVRIQEGRYRHPGCYTCADCGLNLKMRGHFWVGDELYCEKHAR

Variants of: B1
Assay: abundance fitness (aPCA) (normalised: wild type 0, dead -1); higher = more abundant; growth selection in yeast, the domain comes from the species named
Conditions: Homo sapiens

Variant	abundance fitness
HTCEKCSTSNANQAVRIQEGRYRHPGCYTCADCGLNLKMRGHFWVGDELYCEKHAR [I10N]	-0.119 ± 0.064
HTCEKCSTSTANQAVRIQEGRYRHPGCYTCADCGLNLKMRGHFWVGDELYCEKHAR [I10T]	-0.14 ± 0.15
HTCEKCSTSKANQAVRIQEGRYRHPGCYTCADCGLNLKMRGHFWVGDELYCEKHAR [I10K]	-0.488 ± 0.13
HTCEKCSTSEANQAVRIQEGRYRHPGCYTCADCGLNLKMRGHFWVGDELYCEKHAR [I10E]	0.006 ± 0.099
HTCEKCSTSDANQAVRIQEGRYRHPGCYTCADCGLNLKMRGHFWVGDELYCEKHAR [I10D]	-0.041 ± 0.11
HTCEKCSTSVANQAVRIQEGRYRHPGCYTCADCGLNLKMRGHFWVGDELYCEKHAR [I10V]	-0.187 ± 0.057
HTCEKCSTSSANQAVRIQEGRYRHPGCYTCADCGLNLKMRGHFWVGDELYCEKHAR [I10S]	-0.505 ± 0.08
HTCEKCSTSMANQAVRIQEGRYRHPGCYTCADCGLNLKMRGHFWVGDELYCEKHAR [I10M]	-0.425 ± 0.092
HTCEKCSTSLANQAVRIQEGRYRHPGCYTCADCGLNLKMRGHFWVGDELYCEKHAR [I10L]	-0.413 ± 0.066
HTCEKCSTSGANQAVRIQEGRYRHPGCYTCADCGLNLKMRGHFWVGDELYCEKHAR [I10G]	-0.312 ± 0.062
HTCEKCSTSCANQAVRIQEGRYRHPGCYTCADCGLNLKMRGHFWVGDELYCEKHAR [I10C]	-0.062 ± 0.09
HTCEKCSTSHANQAVRIQEGRYRHPGCYTCADCGLNLKMRGHFWVGDELYCEKHAR [I10H]	-0.735 ± 0.17
HTCEKCSTSQANQAVRIQEGRYRHPGCYTCADCGLNLKMRGHFWVGDELYCEKHAR [I10Q]	-0.242 ± 0.083
HTCEKCSTSYANQAVRIQEGRYRHPGCYTCADCGLNLKMRGHFWVGDELYCEKHAR [I10Y]	-0.809 ± 0.21
HTCEKCSTSWANQAVRIQEGRYRHPGCYTCADCGLNLKMRGHFWVGDELYCEKHAR [I10W]	-0.488 ± 0.14
HTCEKCSTSRANQAVRIQEGRYRHPGCYTCADCGLNLKMRGHFWVGDELYCEKHAR [I10R]	-0.445 ± 0.075
HTCEKCSTSIAAQAVRIQEGRYRHPGCYTCADCGLNLKMRGHFWVGDELYCEKHAR [N12A]	-0.096 ± 0.097
HTCEKCSTSIAMQAVRIQEGRYRHPGCYTCADCGLNLKMRGHFWVGDELYCEKHAR [N12M]	-0.123 ± 0.11
HTCEKCSTSIACQAVRIQEGRYRHPGCYTCADCGLNLKMRGHFWVGDELYCEKHAR [N12C]	-0.135 ± 0.15
HTCEKCSTSIAVQAVRIQEGRYRHPGCYTCADCGLNLKMRGHFWVGDELYCEKHAR [N12V]	-0.206 ± 0.057
HTCEKCSTSIAGQAVRIQEGRYRHPGCYTCADCGLNLKMRGHFWVGDELYCEKHAR [N12G]	-0.408 ± 0.063
HTCEKCSTSIAIQAVRIQEGRYRHPGCYTCADCGLNLKMRGHFWVGDELYCEKHAR [N12I]	0.021 ± 0.12
HTCEKCSTSIASQAVRIQEGRYRHPGCYTCADCGLNLKMRGHFWVGDELYCEKHAR [N12S]	-0.028 ± 0.073
HTCEKCSTSIAHQAVRIQEGRYRHPGCYTCADCGLNLKMRGHFWVGDELYCEKHAR [N12H]	0.219 ± 0.14

Variant	abundance fitness
HTCEKCSTSIAQQAVRIQEGRYRHPGCYTCADCGLNLKMRGHFWVGDELYCEKHAR [N12Q]	-0.044 ± 0.11
HTCEKCSTSIATQAVRIQEGRYRHPGCYTCADCGLNLKMRGHFWVGDELYCEKHAR [N12T]	0.14 ± 0.071
HTCEKCSTSIARQAVRIQEGRYRHPGCYTCADCGLNLKMRGHFWVGDELYCEKHAR [N12R]	-0.73 ± 0.097
HTCEKCSTSIAKQAVRIQEGRYRHPGCYTCADCGLNLKMRGHFWVGDELYCEKHAR [N12K]	-0.295 ± 0.073
HTCEKCSTSIAEQAVRIQEGRYRHPGCYTCADCGLNLKMRGHFWVGDELYCEKHAR [N12E]	0.498 ± 0.091
HTCEKCSTSIAFQAVRIQEGRYRHPGCYTCADCGLNLKMRGHFWVGDELYCEKHAR [N12F]	-0.494 ± 0.25
HTCEKCSTSIADQAVRIQEGRYRHPGCYTCADCGLNLKMRGHFWVGDELYCEKHAR [N12D]	0.595 ± 0.1
HTCEKCYTSIANQAVRIQEGRYRHPGCYTCADCGLNLKMRGHFWVGDELYCEKHAR [S7Y]	-0.614 ± 0.2
HTCEKCETSIANQAVRIQEGRYRHPGCYTCADCGLNLKMRGHFWVGDELYCEKHAR [S7E]	-0.878 ± 0.26
HTCEKCWTSIANQAVRIQEGRYRHPGCYTCADCGLNLKMRGHFWVGDELYCEKHAR [S7W]	-0.641 ± 0.1
HTCEKCITSIANQAVRIQEGRYRHPGCYTCADCGLNLKMRGHFWVGDELYCEKHAR [S7I]	-0.047 ± 0.14
HTCEKCPTSIANQAVRIQEGRYRHPGCYTCADCGLNLKMRGHFWVGDELYCEKHAR [S7P]	-0.613 ± 0.2
HTCEKCNTSIANQAVRIQEGRYRHPGCYTCADCGLNLKMRGHFWVGDELYCEKHAR [S7N]	-0.294 ± 0.18
HTCEKCTTSIANQAVRIQEGRYRHPGCYTCADCGLNLKMRGHFWVGDELYCEKHAR [S7T]	0.008 ± 0.076
HTCEKCRTSIANQAVRIQEGRYRHPGCYTCADCGLNLKMRGHFWVGDELYCEKHAR [S7R]	-0.216 ± 0.075
HTCEKCLTSIANQAVRIQEGRYRHPGCYTCADCGLNLKMRGHFWVGDELYCEKHAR [S7L]	-0.09 ± 0.06
HTCEKCCTSIANQAVRIQEGRYRHPGCYTCADCGLNLKMRGHFWVGDELYCEKHAR [S7C]	0.023 ± 0.095
HTCEKCVTSIANQAVRIQEGRYRHPGCYTCADCGLNLKMRGHFWVGDELYCEKHAR [S7V]	-0.16 ± 0.095
HTCEKCFTSIANQAVRIQEGRYRHPGCYTCADCGLNLKMRGHFWVGDELYCEKHAR [S7F]	-0.137 ± 0.073
HTCEKCHTSIANQAVRIQEGRYRHPGCYTCADCGLNLKMRGHFWVGDELYCEKHAR [S7H]	-0.212 ± 0.11
HTCEKCDTSIANQAVRIQEGRYRHPGCYTCADCGLNLKMRGHFWVGDELYCEKHAR [S7D]	-0.55 ± 0.11
HTCEKCMTSIANQAVRIQEGRYRHPGCYTCADCGLNLKMRGHFWVGDELYCEKHAR [S7M]	-0.083 ± 0.14
HTCEKCGTSIANQAVRIQEGRYRHPGCYTCADCGLNLKMRGHFWVGDELYCEKHAR [S7G]	0.018 ± 0.056
